For assay [1], the target named is PSCA (form used in Biacore not stated) (UniProt O43653). The assay is described as follows: Biacore, apparent affinity.
The target of assay [2] is PSCA on cells (PSCA-transfected B-cell line, LNCaP prostate cancer cells, SKW-PSCA+ cells) (human) (UniProt O43653). In words: immunoreactivity of radioiodinated diabody.
For assay [3], the target named is T1, PSCA (form used in Biacore not stated) (UniProt O43653 12-86, limits assumed).
T1 construct: The antigen preparation for the Biacore measurements and for the 4-fold statement is not described; also called prostate stem cell antigen
T1 sequence (looked up): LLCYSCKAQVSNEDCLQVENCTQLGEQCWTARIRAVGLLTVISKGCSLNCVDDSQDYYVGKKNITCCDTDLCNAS
In words: Biacore, apparent affinity; parental diabody, not affinity matured. In general terms: In SPR one partner is held on a chip, and binding of the other changes the refractive index at the surface.

For assay [4], the target named is T1, PSCA (form used in Biacore not stated). The assay is described as follows: method not stated; humanized antibody compared with murine 1G8.
In another assay the target is T2, purified PSCA-Fc (UniProt O43653 12-86).
T2 construct: The construct is described only by a literature citation; not shown: Fc part not described
T2 sequence (looked up): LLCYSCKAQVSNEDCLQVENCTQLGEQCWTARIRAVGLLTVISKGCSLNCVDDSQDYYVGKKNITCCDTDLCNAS
In words: competition ELISA, wells coated with PSCA-Fc. On the procedure:
To examine the structural characteristics of the 2B3 minibody, SDS-PAGE was conducted under reducing and non-reducing conditions. The minibody migrated with a MW of ~47 kDa under reducing conditions and ~95 kDa under non-reducing (FIG. 2). […] The minibody's apparent affinity with respect to its intact antibody counterpart and the original mouse monoclonal antibody (1G8), was determined by competition ELISA.
PSCA relative binding affinity for the minibodies was determined by competition ELISA in which microtiter plate wells were coated with purified PSCA-Fc (Z Gu, T. Olafsen et al. 2006).

The record followed here is US8940871 (University of California, dated 2015).

As to “affinity matured 2B3 anti-PSCA diabody (scFv dimer, eight amino acid linker)”, in assay [1], the Kd came to 1.89 nM. This molecule gave an immunoreactivity in assay [2] of 22%.

B1: parental 2B3 anti-PSCA diabody (scFv dimer, eight amino acid linker) (scFv)
scFv: DIQLTQSPSSLSASVGDRVTITCSASSSVRFIHWYQQKPGKAPKRLIYDTSKLASGVPSRFSGSGSGTDFTLTISSLQPEDFATYYCQQWSSSPFTFGQGTKVEIKGGGSGGGSEVQLVESGGGLVQPGGSLRLSCAASGFNIKDYYIHWVRQAPGKGLEWVAWIDPENGDTEFVPKFQGRATISADTSKNTAYLQMNSLRAEDTAVYYCKTGGFWGQGTLVTVSS
notes: also called parental diabody; 2B3 diabody
As for B1, in assay [3], the Kd is 5.41 nM.

B2: humanized 2B3 anti-PSCA antibody (intact) (antibody, V domains shown)
VH: EVQLVESGGGLVQPGGSLRLSCAASGFNIKDYYIHWVRQAPGKGLEWVAWIDPENGDTEFVPKFQGRATISADTSKNTAYLQMNSLRAEDTAVYYCKTGGFWGQGTLVTVSS
VL: DIQLTQSPSSLSASVGDRVTITCSASSSVRFIHWYQQKPGKAPKRLIYDTSKLASGVPSRFSGSGSGTDFTLTISSLQPEDFATYYCQQWSSSPFTFGQGTKVEIK
notes: Intact humanized antibody; also called intact 2B3 antibody; humanized 2B3 antibody
For B2, the “fold reduction in affinity (against murine 1G8)” value in assay [4] stood at 4 fold.

B3: humanized anti-PSCA minibody (2B3 scFv-CH3 dimer) (other)
chain: DIQLTQSPSSLSASVGDRVTITCSASSSVRFIHWYQQKPGKAPKRLIYDTSKLASGVPSRFSGSGSGTDFTLTISSLQPEDFATYYCQQWSSSPFTFGQGTKVEIKGSTSGGGSGGGSGGGGSSEVQLVESGGGLVQPGGSLRLSCAASGFNIKDYYIHWVRQAPGKGLEWVAWIDPENGDTEFVPKFQGRATISADTSKNTAYLQMNSLRAEDTAVYYCKTGGFWGQGTLVTVSSEPKSCDKTHTCPPCGGGSSGGGSGGQPREPQVYTLPPSRDELTKNQVSLTCLVKGFYPSDIAVEWESNGQPENNYKTTPPVLDSDGSFFLYSKLTVDKSRWQQGNVFSCSVMHEALHNHYTQKSLSLSPGK
notes: Covalent dimer of about 95 kDa; also called 2B3 minibody; parental minibody
B3: in the assay with purified PSCA-Fc, the “fold lower affinity than the intact 2B3 antibody” value is around 2 fold and the “fold lower relative affinity than the murine antibody (1G8)” value is 9.2 fold.
